Data on one molecule can be found in patent US20250101111A1 (ARGENX, published 2025).

Where a chain is given by its changes, count along the chain named. Numbers in names are those of the source. Where only a bound is given, the exact number is not on record here.

What is called Kd is the constant that tells how readily two partners part at equilibrium.

The target in one experiment is T1, human FcγRIa (human, UniProt P12314 16-288).
T1 construct: Bought, C-terminally His-tagged; captured on the sensor by biotinylated anti-His mIgG1; also called hFcγRIa; not shown: C-terminal His tag
Description: SPR (IBIS MX96), FcγR captured on sensor, Fc fragment titrated, pH 7.4, equilibrium 1:1 fit. As to the method: (§1) The sensor surface was regenerated between the cycles by subsequent injections of 20 mM Tris-HCl, 150 mM NaCl pH 8.8 and 20 mM H₃PO₄ pH 2.4. […] Regeneration of the sensor surface between the cycles was performed by injection of 10 mM Gly-HCl pH 2.4. Affinity calculations were carried out by performing an equilibrium analysis interpolating to an Rmax of 200 to 600, depending on the assay, and fitting a 1:1 Langmuir binding model, assuming equilibrium to be reached after 360s of IgG-Fc containing analyte injections. Analysis and calculations were performed using Scrubber Software Version 2 (BioLogic Software), Excel (Microsoft) and Graphpad Prism (Prism).

Experiment [1] deals with T2, human FcRn, endogenous, in THP-1 cells and blood monocytes (human, UniProt P55899 24-365; P61769 21-119).
T2 construct: whole, on cells; Mainly intracellular; measured in intact or permeabilised cells
Description: intracellular FcRn occupancy assay, flow cytometry: THP-1 FcγRIIa K.O. cells preloaded with IVIg, free FcRn stained with DL650-labeled anti-FcRn Fab. (A flow cytometer gives signals particle by particle.)
Description: In short, 1×10⁵ cells were loaded with 5-fold dilution series of IgG variants and fragments thereof for 2 h, ranging from 4 to 500 nM under culture conditions, as specified above. […] 95 μL of this cell solution was then combined with 5 μL of 20× concentrated dilution series of IgG variants and incubated for another 2 h under culture conditions. Thereafter, cells were transferred to 96-well V-bottom plate (Corning) and incubated on ice for 2 min. Cells were subsequently spun down for 3 min at 450×g at 4° C. and the supernatant was discarded. Following the same procedure, cells were washed five times with 150 μL ice-cold medium, followed by one wash with 150 μL 1×PBS supplemented with 1% (v/v) FCS at pH 7.4 and one wash with 150 μL of 1×PBS supplemented with 1% (v/v) FCS at pH 6.0. Cells were then fixed and permeabilized using both solutions of a Fixation/Permeabilization Kit (BD Biosciences) adapted to pH 6.0 after addition of MES (Thermo Fisher Scientific) to a final concentration of 0.5M, otherwise following manufacturer's instructions. […] Cells were washed twice with 150 μL 1×PBS supplemented with 1% (v/v) FCS at pH 6.0, spun down at 450×g at 4° C. for 3 min and the supernatants were discarded. Finally, cells were resuspended in 50 μL of the same buffer, transferred to Micronics tubes (Micronic) on ice and measured in flow cytometry.

Another experiment addresses T3, human FcγRIIIb-NA1 (human, UniProt O75015 17-200, limits assumed, C-terminal biotin).
T3 construct: In-house, C-terminally biotinylated; captured on a streptavidin sensor; also called hFcγRIIIb-NA1
As to the kind of experiment: SPR, Fc fragments on captured FcγRs, pH 7.4. As to the method:
as §1
(In SPR one partner is held on a chip, and binding of the other changes the refractive index at the surface.)

A further experiment has as its target T4, human FcγRIIa-131R (human, UniProt P12318 34-218, C-terminal biotin).
T4 construct: Bought, C-terminally biotinylated; captured on a streptavidin sensor
T4 sequence (looked up): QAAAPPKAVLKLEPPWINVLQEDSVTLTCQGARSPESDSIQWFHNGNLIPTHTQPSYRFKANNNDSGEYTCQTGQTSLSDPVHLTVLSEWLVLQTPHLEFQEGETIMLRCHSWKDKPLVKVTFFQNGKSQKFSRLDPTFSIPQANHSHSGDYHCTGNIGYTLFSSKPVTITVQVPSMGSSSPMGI
As to the kind of experiment: SPR, Fc fragments on captured FcγRs, pH 7.4. As to the method: as §1

Another experiment concerns the target T5, human FcγRIIIb-NA2 (human, UniProt O75015 17-200, limits assumed, C-terminal biotin).
T5 construct: In-house, C-terminally biotinylated; captured on a streptavidin sensor; also called hFcγRIIIb-NA2
As to the kind of experiment: SPR, Fc fragments on captured FcγRs, pH 7.4. As to the method: as §1

In a further experiment the target is T6, human FcγRIIIa-158V (human, UniProt P08637 17-208, C-terminal biotin).
T6 construct: Bought, C-terminally biotinylated; captured on a streptavidin sensor; also called hFcγRIIIa-158V
As to the kind of experiment: SPR, Fc fragments on captured FcγRs, pH 7.4. As to the method: as §1

Another experiment addresses T7, human FcγRIIIa-158F (human, UniProt P08637 17-208, C-terminal biotin).
T7 construct: Bought, C-terminally biotinylated; captured on a streptavidin sensor; also called hFcγRIIIa-158F
Description: SPR, Fc fragments on captured FcγRs, pH 7.4. As to the method:
as §1

The next experiment deals with T8, human FcγRIIa-131H (human, UniProt P12318 34-218, C-terminal biotin).
T8 construct: Bought, C-terminally biotinylated; captured on a streptavidin sensor
T8 sequence (looked up): T4 sequence (looked up) with R134H
As to the kind of experiment: SPR, Fc fragments on captured FcγRs, pH 7.4. As to the method: as §1

T1 sequence (P12314 16-288 limits assumed): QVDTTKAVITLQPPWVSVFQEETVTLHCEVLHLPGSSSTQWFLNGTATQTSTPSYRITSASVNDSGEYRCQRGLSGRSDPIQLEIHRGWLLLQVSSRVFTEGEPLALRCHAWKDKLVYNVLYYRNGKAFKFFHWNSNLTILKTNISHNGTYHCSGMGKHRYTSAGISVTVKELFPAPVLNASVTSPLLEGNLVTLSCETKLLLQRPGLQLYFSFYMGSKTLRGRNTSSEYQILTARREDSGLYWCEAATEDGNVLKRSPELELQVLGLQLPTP
T2 sequence (P55899 24-365 limits assumed, chain 1 of 2): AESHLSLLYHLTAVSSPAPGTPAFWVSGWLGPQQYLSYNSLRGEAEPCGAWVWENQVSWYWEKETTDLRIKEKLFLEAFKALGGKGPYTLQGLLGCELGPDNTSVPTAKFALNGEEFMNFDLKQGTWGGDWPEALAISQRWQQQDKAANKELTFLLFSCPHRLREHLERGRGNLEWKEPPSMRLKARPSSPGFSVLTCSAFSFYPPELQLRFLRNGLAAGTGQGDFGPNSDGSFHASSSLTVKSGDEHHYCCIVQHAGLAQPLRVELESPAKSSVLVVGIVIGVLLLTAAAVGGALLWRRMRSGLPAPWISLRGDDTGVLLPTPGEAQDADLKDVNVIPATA
T2 sequence (P61769 21-119 limits assumed, chain 2 of 2): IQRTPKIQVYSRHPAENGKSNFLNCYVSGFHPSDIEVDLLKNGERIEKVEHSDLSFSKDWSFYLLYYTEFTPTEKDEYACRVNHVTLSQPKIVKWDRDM

B1: Fc-IHH (other, human, UniProt P01857-1 104-330, looked up)
chain: DKTHTCPPCPAPELLGGPSVFLFPPKPKDTLMASRTPEVTCVVVDVSHEDPEVKFNWYVDGVEVHNAKTKPREEQYNSTYRVVSVLTVLAQDWLNGKEYKCKVSNKALPAPIEKTISKAKGQPREPQVYTLPPSRDELTKNQVSLTCLVKGFYPSDIAVEWESNGQPENNYKTTPPVLDSDGSFFLYSKLTVDKSRWQQGNVFSCSVMHEALHNAYTQKSLSLSPGK
notes: domain: Fc fragment; IHH = I253A H310A H435A (EU numbering); also called IgG1-Fc-IHH
Molecule B1 yielded an equilibrium dissociation constant (Kd) with human FcγRIa of 6.1 nM. Moreover, the binding result in experiment [1] is listed as “no binding (tested: 500 nM)”. The “fold reduction in binding compared to Fc-WT” value with human FcγRIIIb-NA1, in the experiment with human FcγRIIa-131R, with human FcγRIIIb-NA2, in the experiment with human FcγRIIIa-158V, with human FcγRIIIa-158F and in the experiment with human FcγRIIa-131H was no less than 3 fold in each case.
